Laboratory results as given in US20220098328A1, “ANTIBODIES TO M(H)DM2/4 AND THEIR USE IN DIAGNOSING AND TREATING CANCER” (NomoCan Pharmaceuticals LLC, priority 2017, published 2022).

Key:
[1] = tested on: human pancreatic cancer MIA PaCa-2 cells; assay: Cell-ELISA on intact cells; assay type: cell-based
Protocol: (§1) Cell-ELISA Methodology: 8,000-10,000 cells/well of a 96-well microplate were grown overnight. The next day, unbound cells were washed off with sterile 1×PBS. The cells in each well were fixed with freshly prepared 4% buffered paraformaldehyde (pH 7.2) for 1 hour followed by 3 washes with 1×PBS. The wells were then blocked with 5% BSA in PBS (100 μl/well) for 2 hours at room temperature. Microplate wells were then washed 5 times with 300 μl of ice cold 1×PBS. MAbs NMC-103, NMC-204 or NMC-303 at 1 μg/mL in 1% BSA/PBS were then incubated with various cancer or normal untransformed cells for 2 hours at room temperature. Wells were then washed with 300 μl of ice-cold 1×PBS for 5 times and corresponding secondary antibody HRP-GaM F(ab′)2 diluted 1:2500 or 1:5000 in PBS with 1% BSA were added at 100 μl/well for 1 hour at room temperature followed by washing 5 times with 300 μl of ice-cold 1×PBS. TMB Substrate Solution (1-Step™ Ultra TMB-ELISA, ThermoFisher, Cat. No. 34028) was then added at 50 μL to each microplate well and incubated at room temperature for 30 minutes. The reaction was stopped by addition of 50 μL of stop solution (ThermoFisher, Cat. No. SS04) to each well and absorbance of each well was measured at OD450 nm. The absorbance value of each experimental well was corrected for the absorbance value obtained from wells treated with isotype-identical mAbs included in each experiment. The results are thus expressed as “relative binding”.
(§2) In a 96-well microplate, 15,000 cells/well were cultured overnight. The next day, unbound cells were washed off with sterile 1×PBS. The cells in each well were fixed with freshly prepared 4% buffered paraformaldehyde (pH 7.2) for 1 hour, followed by 3 washes with 1×PBS. The wells were then blocked with 5% BSA in PBS (100 μl/well) for 2 hours at room temperature. Microplate wells were then washed 5 times with 300 μl of ice cold 1×PBS. Monoclonal antibodies NMC-H103 (VH4/VK3) or NMC-C303 at 5 μg/mL in 1% BSA/PBS were then incubated with various cancer cells for 2 hours at room temperature. Wells were then washed with 300 μl of ice-cold 1×PBS for 5 times and corresponding secondary antibody HRP-GaH F(ab′)2 diluted 1:2000 or 1:4000 in PBS with 1% BSA were added at 100 μl/well for 1 hour at room temperature followed by washing 5 times with 300 μl of ice-cold 1×PBS. TMB Substrate Solution (1-Step™ Ultra TMB-ELISA, ThermoFisher, Cat. No. 34028) was then added at 50 μL to each microplate well and incubated at room temperature for 30 minutes. The reaction was stopped by addition of 50 μL of stop solution (ThermoFisher, Cat. No. SS04) to each well and absorbance of each well was measured at OD450 nm. The absorbance value of each experimental well was corrected for the absorbance value obtained from wells treated with isotype-identical mAbs included in each experiment.

[2] = tested on: human, murine, rabbit protein; design: key: H—binds to human protein; M—binds to murine protein; R—binds to rabbit protein; settings: cited from earlier work
[3] = tested on: plasma membrane M(H)DM2/4; assay: Plasma membrane M(H)DM2/4 after treatment of cells with chemotherapeutic agents (in vitro); assay type: cell-based; settings: data not shown
[4] = target: E-Cadherin on intact mouse LL/2 cancer cells (mouse) (UniProt P09803); assay: cell-based ELISA on intact LL/2 cells, 5 µg/mL, OD450
Chain of E-Cadherin on intact mouse LL/2 cancer cells (mouse) (P09803 157-884): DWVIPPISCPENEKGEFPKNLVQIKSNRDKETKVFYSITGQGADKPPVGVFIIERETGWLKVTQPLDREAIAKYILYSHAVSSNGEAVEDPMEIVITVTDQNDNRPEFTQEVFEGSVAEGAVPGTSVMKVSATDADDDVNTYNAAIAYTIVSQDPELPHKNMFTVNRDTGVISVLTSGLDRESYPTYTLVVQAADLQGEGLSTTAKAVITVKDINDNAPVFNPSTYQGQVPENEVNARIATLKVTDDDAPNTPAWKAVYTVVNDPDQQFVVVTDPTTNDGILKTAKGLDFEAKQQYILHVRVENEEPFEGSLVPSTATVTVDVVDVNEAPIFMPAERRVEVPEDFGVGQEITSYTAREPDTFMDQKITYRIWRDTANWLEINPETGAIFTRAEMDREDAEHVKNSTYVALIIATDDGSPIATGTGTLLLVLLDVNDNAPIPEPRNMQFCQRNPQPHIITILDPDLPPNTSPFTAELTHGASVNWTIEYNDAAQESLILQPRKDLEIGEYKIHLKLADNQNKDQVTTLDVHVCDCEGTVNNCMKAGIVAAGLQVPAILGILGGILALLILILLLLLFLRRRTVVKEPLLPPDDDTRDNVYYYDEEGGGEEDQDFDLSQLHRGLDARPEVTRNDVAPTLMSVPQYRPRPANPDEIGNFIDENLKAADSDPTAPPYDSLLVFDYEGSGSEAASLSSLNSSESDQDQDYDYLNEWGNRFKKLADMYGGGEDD

[5] = target: NMC-P3 peptide (SEQ ID NO:3), amino acids 475-491 of HDM2 (Homo sapiens, UniProt Q00987); assay: Peptide-ELISA; assay type: binding; settings: 5 μg/ml peptide on plate, OD 450 nm
Protocol: Peptide-ELISA Methodology: 5 μg/ml of NMC-P1, NMC-P2 or NMC-P3 peptide antigen was dried onto a 96-well ELISA plate overnight. Plates were then blocked with 5% BSA in 1× phosphate-buffered saline (PBS) (100 μl/well) for 2 hours at room temperature. Microplate wells were then washed 5 times with 300 μl of ice cold 1×PBS. Appropriate dilutions of monoclonal antibodies NMC-103, NMC-204 or NMC-303 in 1% bovine serum albumin (BSA) in PBS solution were then incubated with their corresponding peptides (NMC-P1, NMC-P2 or NMC-P3, respectively) at room temperature. After 2 hours, wells were washed 5 times with 300 μl ice-cold PBS/well and 100 μl secondary antibody (HRP-labeled Goat anti-Mouse F(ab′)2 H&L cross-adsorbed secondary antibody (HRP-GaM F(ab′)2), ThermoFisher, Cat. No. A24524) diluted 1:2500 to 1:5000 in PBS-1% BSA solution were added and the incubation continued at room temperature. After 1 hour, the wells were washed again 5 times with 200 μl of ice-cold PBS and 50 μL of the TMB Substrate Solution (1-Step™ Ultra TMB-ELISA, ThermoFisher, Cat. No. 34028) were added to each well and color was allowed to develop for 30 minutes at room temperature. The reaction was stopped by addition of 50 μL of stop solution (ThermoFisher, Cat. No. SS04) to each well and absorbance of each well was read immediately for optical density (OD) at 450 nm.

[6] = target: T1, recombinant HDM2 protein (GST tagged) (Homo sapiens, UniProt Q00987); assay: Western blot (immunoblot); assay type: binding; settings: 1 μg/well protein, antibody 1 μg/ml; band at approximately 83 kD
T1 construct: NMC-103, NMC-204 and NMC-303 reacted with the recombinant full-length HDM2 protein; purchased Abcam ab188727
T1 sequence (Q00987 whole entry): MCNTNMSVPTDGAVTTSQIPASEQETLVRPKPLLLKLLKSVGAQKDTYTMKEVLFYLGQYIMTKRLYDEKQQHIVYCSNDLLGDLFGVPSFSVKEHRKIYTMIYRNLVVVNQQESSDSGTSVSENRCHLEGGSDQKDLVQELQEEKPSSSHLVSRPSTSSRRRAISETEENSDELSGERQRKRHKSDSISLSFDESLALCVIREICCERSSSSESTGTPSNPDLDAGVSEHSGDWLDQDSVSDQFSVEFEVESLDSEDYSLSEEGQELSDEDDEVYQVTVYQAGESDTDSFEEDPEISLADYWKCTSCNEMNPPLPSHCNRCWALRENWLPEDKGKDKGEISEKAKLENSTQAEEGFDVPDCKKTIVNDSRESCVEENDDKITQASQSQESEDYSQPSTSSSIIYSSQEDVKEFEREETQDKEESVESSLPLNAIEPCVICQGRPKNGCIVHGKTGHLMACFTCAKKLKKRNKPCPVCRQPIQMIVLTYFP
Protocol: Western Blot: As for immunoblots, 1 μg/well of recombinant HDM2 protein (GST tagged, Abcam, Cat. No. ab188727) was separated on 8-16% sodium dodecyl sulfate (SDS) polyacrylamide gel and proteins were then transferred to polyvinylidene difluoride (PVDF) membrane. The membrane was blocked with 5% milk followed by incubation with monoclonal antibody NMC-103, NMC-204 or NMC-303 at 1 μg/ml in 1% milk in PBS for 2 hours. The membrane was then washed ×3 times (10 minutes each) and incubated for 1 hour with corresponding HRP-conjugated secondary antibody (Goat anti-Mouse IgG (H&L), F(ab′)2 Frag Cross-adsorbed HRP (HRP-GaM F(ab′)2), ThermoFisher, Cat. No. A24524) diluted 1:5000 in 1% BSA-PBS. The membrane was then washed ×3 times and incubated with Pierce ECL Plus Western Blotting Substrate (ThermoFisher, Cat. No. #32132) for 10 min before developing on a LICOR Scanner.

[7] = tested on: human breast cancer MCF-7 cells; assay: Cell-ELISA on intact cells; assay type: cell-based; settings: MCF-7; mAb 1 μg/mL; fixed, non-permeabilized cells
Protocol: as §1, §2

[8] = tested on: human melanoma A2058 cells; assay: Cell-ELISA on intact cells; assay type: cell-based; settings: A2058; mAb 1 μg/mL; fixed, non-permeabilized cells
Protocol: as §1, §2

[9] = tested on: human ovarian cancer OVCAR-3 cells; assay: Cell-ELISA on intact cells; assay type: cell-based; settings: OVCAR-3 (resistant to adriamycin, melphalan, cisplatin); mAb 1 μg/mL; fixed, non-permeabilized cells
Protocol: as §1, §2

[10] = tested on: mouse Lewis Lung LL/2 cells; assay: Cell-ELISA on intact cells; assay type: cell-based; settings: LL/2; mAb 1 μg/mL; fixed, non-permeabilized cells
Protocol: as §1, §2

[11] = tested on: mouse colon cancer MC-38 cells; assay: Cell-ELISA on intact cells; assay type: cell-based; settings: MC-38; mAb 1 μg/mL; fixed, non-permeabilized cells
Protocol: as §1, §2

[12] = tested on: mouse pancreatic Panc02 cells; assay: Cell-ELISA on intact cells; assay type: cell-based; settings: Panc02; mAb 1 μg/mL; fixed, non-permeabilized cells
Protocol: as §1, §2

[13] = tested on: primary patient-derived human ovarian cancer OVCA4 cells; assay: Cell-ELISA on intact cells; assay type: cell-based; settings: OVCA4; mAb 1 μg/mL; fixed, non-permeabilized cells
Protocol: as §1, §2

[14] = tested on: human triple negative breast cancer HCC1806 cells; assay: Cell-ELISA on intact cells; assay type: cell-based; settings: mAb 1 μg/mL, fixed, non-permeabilized cells
Protocol: as §1

[15] = tested on: human uveal melanoma 92.1 cells; assay: Cell-ELISA on intact cells; assay type: cell-based; settings: mAb 1 μg/mL, fixed, non-permeabilized cells
Protocol: as §1

[16] = tested on: normal human peripheral blood mononuclear cells (PBMCs); assay: Cell-ELISA on intact cells; assay type: cell-based; settings: freshly isolated normal human PBMCs
Protocol: as §1

For Cytochrome C [reference compound], the “binding to intact, EDTA-released MiaPaCa-2 cells, cell-ELISA” value ([1]; EDTA 10 mmols, pH 7.2, 5 min, 37° C.) is listed as “only minimal binding” and the “Species Reactivity” value [2] is listed as “H”.

For `Nc1ccn([C@@H]2O[C@H](CO)[C@@H](O)C2(F)F)c(=O)n1` [Gemcitabine], the “plasma membrane M(H)DM2/4 level of treated cells” value [3] was “increase in plasma membrane M(H)DM2/4”.

E-cadherin G10 (SC-8426) (antibody) showed an average OD reading [4] of 1.49 OD.

With `CC(=O)O[C@H]1C(=O)[C@@]2(C)[C@H]([C@H](OC(=O)c3ccccc3)[C@]3(O)C[C@H](OC(=O)[C@H](O)[C@@H](NC(=O)c4ccccc4)c4ccccc4)C(C)=C1C3(C)C)[C@]1(OC(C)=O)CO[C@@H]1C[C@@H]2O` [Paclitaxel] the “plasma membrane M(H)DM2/4 level of treated cells” value [3] was “increase in plasma membrane M(H)DM2/4”.

B1: NMC-303: mouse monoclonal antibody of the IgM isotype that binds to NMC-P3 (SEQ ID NO:3); VH SEQ ID NO:40, VL SEQ ID NO:41 (antibody, V domains shown)
VH: QVQLQQPGAELVKPGASVKLSCKASGYTFTSYYMYWVKQRPGQGLEWIGGINPRNGGTNFNEKFKNKATLTADKSSTTAYMQLSSLTSEDSAVYYCTRSGYYAMDYWGQGTSVTVSS
VL: DIQMTQTTSSLSASLGDRVTISCRASQDISNFLNWYQQKPDGTVKLLIYYTSRLHSGVPSRFSGSGSGTDYSLTISNLEQEDIATYFCQQGNTLPRTFGGGTKLEIK
modifications: mAb NMC-303 Heavy Chain Variable Region; mAb NMC-303 Light Chain Variable Region
For B1, the “binding to NMC-P3 peptide” value [5] was “bound”, the “reactivity with recombinant full-length HDM2-GST protein (immunoblot)” value [6] was “reacted” and the “relative binding (reactivity) to intact cells, cell-ELISA” value (from here on “relative binding (reactivity)”) [7] was “reactivity”. For the same molecule, the “relative binding (reactivity)” value [8] was “reactivity”, the “relative binding (reactivity)” value [9] was “reactivity” and the “relative binding (reactivity)” value ([1]; MIA PaCa-2, mAb 1 μg/mL, fixed, non-permeabilized cells) was “reactivity”. The “binding to intact MIA PaCa-2 cells when competed with NMC-P3 peptide” value ([1]; cell-ELISA peptide competition) was “competed”, the “relative binding (reactivity)” value [10] was “reactivity” and the “relative binding (reactivity)” value [11] was “reactivity”. The “relative binding (reactivity)” value [12] was “reactivity”, the “relative binding (reactivity)” value [13] was “reactivity” and the “relative binding (reactivity)” value [14] was “reactivity”. For the same molecule, the “relative binding (reactivity)” value [15] was “reactivity” and the “binding to intact normal cells, cell-ELISA” value [16] was “virtually no binding”.
